Data reported in the RNAGym collection of RNA variant scans (doi:10.1093/nar/gkz1192).

B1: CPEB3 Ribozyme (parent)
chain: UAACAGGGGGCCACAGCAGAAGCGUUCACGUCGCAGCCCCUGUCAGAUUCUGGUGAAUCUGCGAAUUCUGCUGUAUAUCUC

Variants of: B1
Experiment: self-cleavage, relative activity (ratio to wild type); higher = more cleavage; in vitro, sequencing
In short: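 Relative activity compares each variant's cleaved/total read fraction with that of the unmutated ribozyme. To get these fractions, barcoded CPEB3 ribozyme libraries from rounds of error-prone PCR were transcribed with T7 RNA polymerase for 5 hours at 37°C and then given 15 min of DNase I treatment before EDTA was added. The RNAs were reverse transcribed with template switching and sequenced on Illumina, and DNA sequencing linked barcodes to variants. A minimum of 5 reads applied, and three batches were averaged.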

Row | Variant | self-cleavage
1 | UAACCGGGGGCCACAGCAGAAGCGUUCACGUCGCAGCCCCUGUCAGAUUCUGGUGAAUCUGCGAAUUCUGUUGUAUAUCUC | 0.57
2 | UAACCGGGGGCCACAGCAGAAGCGUUCACGUCGGAGCCCCUGUCAGAUUCUGGUGAAUCUGCGAAUUCUGCUGUAUAUCUC | 0.41
3 | UAACCGGGGGCCACAGCAGAAGCGUUCACGUCGUAGCCCCUGUCAGAUUCUGGUGAAUCUGCGAAUUCUGCUGUAUAUCUC | 0.47
4 | UAACCGGGGGCCACAGCAGAAGCGUUCACGUGGCAGCCCCUGUCAGAUUCUGGUGAAUCUGCGAAUUCUGCUGUAUAUCUC | 0
5 | UAACCGGGGGCCACAGCAGAAGCGUUCACGUCGCAGCCCCUGUCAGAUUCCGGUGAAUCUGCGAAUUCUGCUGUAUAUCUC | 0.6
6 | UAACGGGGGGCCUCAGCAGAAGCGUUCACGUCGCAGCCCCUGUCAGAUUCUGGUGAAUCUGCGAAUUCUGCUGUAUAUCUC | 0.98
7 | UAACGGGGGGCCCCAGCAGAAGCGUUCACGUCGCAGCCCCUGUCAGAUUCUGGUGAAUCUGCGAAUUCUGCUGUAUAUCUC | 0.76
8 | UAACGGGGGGCCGCAGCAGAAGCGUUCACGUCGCAGCCCCUGUCAGAUUCUGGUGAAUCUGCGAAUUCUGCUGUAUAUCUC | 0.56
9 | UAACCGGGGGCCACAGCAGAAGCGUUCACGUCGCAGCCCCUGUCAGAUUCUGGUGAAUCUGCGAAUUCUGCCGUAUAUCUC | 1.09
10 | UAACCGGGGGCCACAGCAGAAGCGUUCACGUCGCAGCCCCUGUCAGAUUCUGGUGAAUCUGCGAAUUCUGCAGUAUAUCUC | 0.98
11 | UAACCGGGGGCCACAGCAGAAGCGUUCACGUCGCAGCCCCUGUCAGAUUCUGGUGAAUCUGCGAACUCUGCUGUAUAUCUC | 0.54
12 | UAACCGGGGGCCACAGCAGAAGCGUUCACGUCGCAGCCCCUGUCAGAUUCUGGUGAAUCUGCUAAUUCUGCUGUAUAUCUC | 0.91
13 | UAACCGGGGGCCACAGCAGAAGCGUUCACGUCGCAGCCCCUGUCAGAUUCUGGUGAAUCUGCCAAUUCUGCUGUAUAUCUC | 0.95
14 | UAACCGGGAGCCACAGCAGAAGCGUUCACGUCGCAGCCCCUGUCAGAUUCUGGUGAAUCUGCGAAUUCUGCUGUAUAUCUC | 0.41
15 | UAACCGGGUGCCACAGCAGAAGCGUUCACGUCGCAGCCCCUGUCAGAUUCUGGUGAAUCUGCGAAUUCUGCUGUAUAUCUC | 0.52
16 | UAACCGGGGGCCACAGCAGAAGCGUUCACGUCGCAGCCCCGGUCAGAUUCUGGUGAAUCUGCGAAUUCUGCUGUAUAUCUC | 0.35
17 | UAACCGGGGGCCACAGCAGAAGCGUUCACGUCGCAGCCCCAGUCAGAUUCUGGUGAAUCUGCGAAUUCUGCUGUAUAUCUC | 0.28

Row | Variant | self-cleavage
18 | UAACCGGGGGCCACAGCAGAAGCGUUCACGUCGCAGCCCCUGUCAGAUCCUGGUGAAUCUGCGAAUUCUGCUGUAUAUCUC | 0.54
19 | UAACCGGGGGCCACAGCAGAAGCGUUCACGUCGCAGCCCCUGUCAGAUUCUGGUUAAUCUGCGAAUUCUGCUGUAUAUCUC | 1.13
20 | UAACCGGGGGCCACAGCAGAAGCGUUCACGUCGCAACCCCUGUCAGAUUCUGGUGAAUCUGCGAAUUCUGCUGUAUAUCUC | 0.31
21 | UAACCGGGGGCCACAGCAGAAGCGUUCACGUCGCAGUCCCUGUCAGAUUCUGGUGAAUCUGCGAAUUCUGCUGUAUAUCUC | 0.76
22 | UAACCGGGGGCCACAGCAGAAGCGUUCACGUCGCAGGCCCUGUCAGAUUCUGGUGAAUCUGCGAAUUCUGCUGUAUAUCUC | 0.87
23 | UAACCGGGGGCCACAGCAGAAGCGUUCACGUCGCAGCCCCUGUCAGAUUCUGGUGAAUCUGUGAAUUCUGCUGUAUAUCUC | 0.13
24 | UAACCGGGGGCCACAGCAGAAGCGUUCACGUCGCAGCCCCUGUCAGAUUCUGGUGAAUCUGCGAAUUCUGCUGCAUAUCUC | 1.19
25 | UAACCGGGGGCCACAGCAGAAGCGCUCACGUCGCAGCCCCUGUCAGAUUCUGGUGAAUCUGCGAAUUCUGCUGUAUAUCUC | 0.15
26 | UAACCUGGGGCCACAGCAGAAGCGUUCACGUCGCAGCCCCUGUCAGAUUCUGGUGAAUCUGCGAAUUCUGCUGUAUAUCUC | 0.32
27 | UAACCGGGGGCCACAGCAGAAGCGUUCACGUCGCAGCCCCUGCCAGAUUCUGGUGAAUCUGCGAAUUCUGCUGUAUAUCUC | 0.57
28 | UAACCGGGGGCCACAGCAGAAGCGUUCACGUCGCAGCCCCUGACAGAUUCUGGUGAAUCUGCGAAUUCUGCUGUAUAUCUC | 1.13
29 | UAACCGGGGGCCACAGCAGAAGCGUUCACGUCGCAGCCCCUGGCAGAUUCUGGUGAAUCUGCGAAUUCUGCUGUAUAUCUC | 0.38
30 | UAACCGGGGGCCACAGCAGAAGCGUUCACGUCGCAGCCCCUGUCAGAUUAUGGUGAAUCUGCGAAUUCUGCUGUAUAUCUC | 0.8
31 | UAACCGGGGGCCACAGCAGAAGCGUUCACUUCGCAGCCCCUGUCAGAUUCUGGUGAAUCUGCGAAUUCUGCUGUAUAUCUC | 0.24
32 | UAACCGGGGGCCACAGCAGAAGCGUUCACAUCGCAGCCCCUGUCAGAUUCUGGUGAAUCUGCGAAUUCUGCUGUAUAUCUC | 0.19
33 | UAACCGGGGGCCACAGCAGAAGCGUCCACGUCGCAGCCCCUGUCAGAUUCUGGUGAAUCUGCGAAUUCUGCUGUAUAUCUC | 0.58
34 | UAACCGGGGGCCACAGCAGAAGCGUACACGUCGCAGCCCCUGUCAGAUUCUGGUGAAUCUGCGAAUUCUGCUGUAUAUCUC | 1.04
